To fix the notation:
B1: Compound 26 (peptide)
peptide: Isovaleryl-APEK([AEEA-AEEA-γGlu-C18 diacid])PPEDATPEELQRYYVSLRHYYNWLTRQRY-NH2
SMILES: CC(C)CC(=O)N[C@@H](C)C(=O)N1CCC[C@H]1C(=O)N[C@@H](CCC(=O)O)C(=O)N[C@@H](CCCCNC(=O)COCCOCCNC(=O)COCCOCCNC(=O)CC[C@H](NC(=O)CCCCCCCCCCCCCCCCC(=O)O)C(=O)O)C(=O)N1CCC[C@H]1C(=O)N1CCC[C@H]1C(=O)N[C@@H](CCC(=O)O)C(=O)N[C@@H](CC(=O)O)C(=O)N[C@@H](C)C(=O)N[C@H](C(=O)N1CCC[C@H]1C(=O)N[C@@H](CCC(=O)O)C(=O)N[C@@H](CCC(=O)O)C(=O)N[C@@H](CC(C)C)C(=O)N[C@@H](CCC(N)=O)C(=O)N[C@@H](CCCNC(=N)N)C(=O)N[C@@H](Cc1ccc(O)cc1)C(=O)N[C@@H](Cc1ccc(O)cc1)C(=O)N[C@H](C(=O)N[C@@H](CO)C(=O)N[C@@H](CC(C)C)C(=O)N[C@@H](CCCNC(=N)N)C(=O)N[C@@H](Cc1c[nH]cn1)C(=O)N[C@@H](Cc1ccc(O)cc1)C(=O)N[C@@H](Cc1ccc(O)cc1)C(=O)N[C@@H](CC(N)=O)C(=O)N[C@@H](Cc1c[nH]c2ccccc12)C(=O)N[C@@H](CC(C)C)C(=O)N[C@H](C(=O)N[C@@H](CCCNC(=N)N)C(=O)N[C@@H](CCC(N)=O)C(=O)N[C@@H](CCCNC(=N)N)C(=O)N[C@@H](Cc1ccc(O)cc1)C(N)=O)[C@@H](C)O)C(C)C)[C@@H](C)O
B2: Compound 34 (peptide)
peptide: Isovaleryl-APEK([AEEA-AEEA-γGlu-C18 diacid])PEEDASPEELQRYYVSTRHYYNWLTRQRY-NH2
SMILES: CC(C)CC(=O)N[C@@H](C)C(=O)N1CCC[C@H]1C(=O)N[C@@H](CCC(=O)O)C(=O)N[C@@H](CCCCNC(=O)COCCOCCNC(=O)COCCOCCNC(=O)CC[C@H](NC(=O)CCCCCCCCCCCCCCCCC(=O)O)C(=O)O)C(=O)N1CCC[C@H]1C(=O)N[C@@H](CCC(=O)O)C(=O)N[C@@H](CCC(=O)O)C(=O)N[C@@H](CC(=O)O)C(=O)N[C@@H](C)C(=O)N[C@@H](CO)C(=O)N1CCC[C@H]1C(=O)N[C@@H](CCC(=O)O)C(=O)N[C@@H](CCC(=O)O)C(=O)N[C@@H](CC(C)C)C(=O)N[C@@H](CCC(N)=O)C(=O)N[C@@H](CCCNC(=N)N)C(=O)N[C@@H](Cc1ccc(O)cc1)C(=O)N[C@@H](Cc1ccc(O)cc1)C(=O)N[C@H](C(=O)N[C@@H](CO)C(=O)N[C@H](C(=O)N[C@@H](CCCNC(=N)N)C(=O)N[C@@H](Cc1c[nH]cn1)C(=O)N[C@@H](Cc1ccc(O)cc1)C(=O)N[C@@H](Cc1ccc(O)cc1)C(=O)N[C@@H](CC(N)=O)C(=O)N[C@@H](Cc1c[nH]c2ccccc12)C(=O)N[C@@H](CC(C)C)C(=O)N[C@H](C(=O)N[C@@H](CCCNC(=N)N)C(=O)N[C@@H](CCC(N)=O)C(=O)N[C@@H](CCCNC(=N)N)C(=O)N[C@@H](Cc1ccc(O)cc1)C(N)=O)[C@@H](C)O)[C@@H](C)O)C(C)C
B3: Compound 27 (peptide)
peptide: Isovaleryl-APEK([AEEA-AEEA-γGlu-C18 diacid])PPEDAEPEELQRYYVSLRHYYNWLTRQRY-NH2
SMILES: CC(C)CC(=O)N[C@@H](C)C(=O)N1CCC[C@H]1C(=O)N[C@@H](CCC(=O)O)C(=O)N[C@@H](CCCCNC(=O)COCCOCCNC(=O)COCCOCCNC(=O)CC[C@H](NC(=O)CCCCCCCCCCCCCCCCC(=O)O)C(=O)O)C(=O)N1CCC[C@H]1C(=O)N1CCC[C@H]1C(=O)N[C@@H](CCC(=O)O)C(=O)N[C@@H](CC(=O)O)C(=O)N[C@@H](C)C(=O)N[C@@H](CCC(=O)O)C(=O)N1CCC[C@H]1C(=O)N[C@@H](CCC(=O)O)C(=O)N[C@@H](CCC(=O)O)C(=O)N[C@@H](CC(C)C)C(=O)N[C@@H](CCC(N)=O)C(=O)N[C@@H](CCCNC(=N)N)C(=O)N[C@@H](Cc1ccc(O)cc1)C(=O)N[C@@H](Cc1ccc(O)cc1)C(=O)N[C@H](C(=O)N[C@@H](CO)C(=O)N[C@@H](CC(C)C)C(=O)N[C@@H](CCCNC(=N)N)C(=O)N[C@@H](Cc1c[nH]cn1)C(=O)N[C@@H](Cc1ccc(O)cc1)C(=O)N[C@@H](Cc1ccc(O)cc1)C(=O)N[C@@H](CC(N)=O)C(=O)N[C@@H](Cc1c[nH]c2ccccc12)C(=O)N[C@@H](CC(C)C)C(=O)N[C@H](C(=O)N[C@@H](CCCNC(=N)N)C(=O)N[C@@H](CCC(N)=O)C(=O)N[C@@H](CCCNC(=N)N)C(=O)N[C@@H](Cc1ccc(O)cc1)C(N)=O)[C@@H](C)O)C(C)C
B4: Compound 33 (peptide)
peptide: Isovaleryl-APEK([AEEA-AEEA-γGlu-C18 diacid])PEEPASPEELQRYYVELRHYYNWLTRQRY-NH2
SMILES: CC(C)CC(=O)N[C@@H](C)C(=O)N1CCC[C@H]1C(=O)N[C@@H](CCC(=O)O)C(=O)N[C@@H](CCCCNC(=O)COCCOCCNC(=O)COCCOCCNC(=O)CC[C@H](NC(=O)CCCCCCCCCCCCCCCCC(=O)O)C(=O)O)C(=O)N1CCC[C@H]1C(=O)N[C@@H](CCC(=O)O)C(=O)N[C@@H](CCC(=O)O)C(=O)N1CCC[C@H]1C(=O)N[C@@H](C)C(=O)N[C@@H](CO)C(=O)N1CCC[C@H]1C(=O)N[C@@H](CCC(=O)O)C(=O)N[C@@H](CCC(=O)O)C(=O)N[C@@H](CC(C)C)C(=O)N[C@@H](CCC(N)=O)C(=O)N[C@@H](CCCNC(=N)N)C(=O)N[C@@H](Cc1ccc(O)cc1)C(=O)N[C@@H](Cc1ccc(O)cc1)C(=O)N[C@H](C(=O)N[C@@H](CCC(=O)O)C(=O)N[C@@H](CC(C)C)C(=O)N[C@@H](CCCNC(=N)N)C(=O)N[C@@H](Cc1c[nH]cn1)C(=O)N[C@@H](Cc1ccc(O)cc1)C(=O)N[C@@H](Cc1ccc(O)cc1)C(=O)N[C@@H](CC(N)=O)C(=O)N[C@@H](Cc1c[nH]c2ccccc12)C(=O)N[C@@H](CC(C)C)C(=O)N[C@H](C(=O)N[C@@H](CCCNC(=N)N)C(=O)N[C@@H](CCC(N)=O)C(=O)N[C@@H](CCCNC(=N)N)C(=O)N[C@@H](Cc1ccc(O)cc1)C(N)=O)[C@@H](C)O)C(C)C
B5: Compound 32 (peptide)
peptide: Isovaleryl-APEK([AEEA-AEEA-γGlu-C18 diacid])PEEDTSPEELQRYEVSLRHYYNWLTRQRY-NH2
SMILES: CC(C)CC(=O)N[C@@H](C)C(=O)N1CCC[C@H]1C(=O)N[C@@H](CCC(=O)O)C(=O)N[C@@H](CCCCNC(=O)COCCOCCNC(=O)COCCOCCNC(=O)CC[C@H](NC(=O)CCCCCCCCCCCCCCCCC(=O)O)C(=O)O)C(=O)N1CCC[C@H]1C(=O)N[C@@H](CCC(=O)O)C(=O)N[C@@H](CCC(=O)O)C(=O)N[C@@H](CC(=O)O)C(=O)N[C@H](C(=O)N[C@@H](CO)C(=O)N1CCC[C@H]1C(=O)N[C@@H](CCC(=O)O)C(=O)N[C@@H](CCC(=O)O)C(=O)N[C@@H](CC(C)C)C(=O)N[C@@H](CCC(N)=O)C(=O)N[C@@H](CCCNC(=N)N)C(=O)N[C@@H](Cc1ccc(O)cc1)C(=O)N[C@@H](CCC(=O)O)C(=O)N[C@H](C(=O)N[C@@H](CO)C(=O)N[C@@H](CC(C)C)C(=O)N[C@@H](CCCNC(=N)N)C(=O)N[C@@H](Cc1c[nH]cn1)C(=O)N[C@@H](Cc1ccc(O)cc1)C(=O)N[C@@H](Cc1ccc(O)cc1)C(=O)N[C@@H](CC(N)=O)C(=O)N[C@@H](Cc1c[nH]c2ccccc12)C(=O)N[C@@H](CC(C)C)C(=O)N[C@H](C(=O)N[C@@H](CCCNC(=N)N)C(=O)N[C@@H](CCC(N)=O)C(=O)N[C@@H](CCCNC(=N)N)C(=O)N[C@@H](Cc1ccc(O)cc1)C(N)=O)[C@@H](C)O)C(C)C)[C@@H](C)O
B6: Compound 28 (peptide)
peptide: Isovaleryl-APEK([AEEA-AEEA-γGlu-C18 diacid])PEEDTSPEELQRYYVELRHYYNWLTRQRY-NH2
SMILES: CC(C)CC(=O)N[C@@H](C)C(=O)N1CCC[C@H]1C(=O)N[C@@H](CCC(=O)O)C(=O)N[C@@H](CCCCNC(=O)COCCOCCNC(=O)COCCOCCNC(=O)CC[C@H](NC(=O)CCCCCCCCCCCCCCCCC(=O)O)C(=O)O)C(=O)N1CCC[C@H]1C(=O)N[C@@H](CCC(=O)O)C(=O)N[C@@H](CCC(=O)O)C(=O)N[C@@H](CC(=O)O)C(=O)N[C@H](C(=O)N[C@@H](CO)C(=O)N1CCC[C@H]1C(=O)N[C@@H](CCC(=O)O)C(=O)N[C@@H](CCC(=O)O)C(=O)N[C@@H](CC(C)C)C(=O)N[C@@H](CCC(N)=O)C(=O)N[C@@H](CCCNC(=N)N)C(=O)N[C@@H](Cc1ccc(O)cc1)C(=O)N[C@@H](Cc1ccc(O)cc1)C(=O)N[C@H](C(=O)N[C@@H](CCC(=O)O)C(=O)N[C@@H](CC(C)C)C(=O)N[C@@H](CCCNC(=N)N)C(=O)N[C@@H](Cc1c[nH]cn1)C(=O)N[C@@H](Cc1ccc(O)cc1)C(=O)N[C@@H](Cc1ccc(O)cc1)C(=O)N[C@@H](CC(N)=O)C(=O)N[C@@H](Cc1c[nH]c2ccccc12)C(=O)N[C@@H](CC(C)C)C(=O)N[C@H](C(=O)N[C@@H](CCCNC(=N)N)C(=O)N[C@@H](CCC(N)=O)C(=O)N[C@@H](CCCNC(=N)N)C(=O)N[C@@H](Cc1ccc(O)cc1)C(N)=O)[C@@H](C)O)C(C)C)[C@@H](C)O

*1 amine or outer side, *2 acyl side, *3 side chain or, on linkers, in order; H or OH if unused. Side-chain parts run from the residue outwards. The star is where a group is joined. C18 diacid = O=C(O)CCCCCCCCCCCCCCCCC(=O)*; γGlu = O=C(O)[C@H](CCC(=O)[*:2])N[*:1]; Isovaleryl = CC(C)CC(=O)*; AEEA = NCCOCCOCC(=O)O

The test has as its target T1, human neuropeptide Y2 receptor (human, UniProt P49146 1-381).
T1 construct: whole, on cells; also called hNPY2 receptor; hNPY2-R
T1 sequence (looked up): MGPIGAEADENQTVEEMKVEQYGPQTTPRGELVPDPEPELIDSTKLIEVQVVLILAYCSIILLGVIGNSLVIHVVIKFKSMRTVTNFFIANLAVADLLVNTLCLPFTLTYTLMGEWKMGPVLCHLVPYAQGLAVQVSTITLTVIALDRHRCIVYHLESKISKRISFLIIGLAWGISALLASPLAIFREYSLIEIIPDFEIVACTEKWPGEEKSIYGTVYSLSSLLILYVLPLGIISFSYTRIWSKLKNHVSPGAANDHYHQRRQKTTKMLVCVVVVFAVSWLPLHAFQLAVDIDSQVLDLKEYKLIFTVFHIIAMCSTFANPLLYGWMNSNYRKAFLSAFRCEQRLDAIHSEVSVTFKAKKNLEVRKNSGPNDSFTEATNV
The experiment in a line: radioligand competition (125I-PYY(1-36)), hNPY2R membranes. The method, boiled down: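 Commercial human Y2 receptor membranes (0.5 μg protein/well) were incubated with peptide for 2 h at room temperature in 50 mM HEPES, 5 mM MgCl₂, 1 mM CaCl₂, pH 7.4, with 0.2% ovalbumin. Bound radioligand was separated on PEI-soaked GF/C filters and counted by scintillation, and IC₅₀ came from nonlinear sigmoidal regression.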
For orientation: In a radioligand displacement assay an active substance lowers the binding of a labelled ligand.
In general, Ki refers to the equilibrium dissociation constant of an inhibitor or competing ligand from its target. B1 showed a Ki of 0.77 nM.

Take B2: the affinity corresponds to a Ki of 6.4 nM.

For B3, the affinity, expressed as Ki, was 0.96 nM.

Molecule B4 showed a Ki of 0.45 nM.

On to B5, for which the inhibition constant (Ki) stood at 4.84 nM.

Molecule B6 had a Ki of 6.03 nM.
